The values below come from publication PMC8151308.

This test has as its target LEL CD81-SA labelled with Cy3 (UniProt P60033). Put plainly: dynamic light scattering + other: nanoparticle tracking analysis; nanotraps (LEL CD81-SA-Cy3 on PEG-b-PLA nanoparticles, 0.50 mg/mL) mixed with HC VMPs (E2-GFP on PEG-b-PLA nanoparticles, 0.15 mg/mL) in 0.01 M sodium phosphate buffer pH 7.4, 25 °C; aggregation monitored after 5, 10, 20 and 30 min.

With “chimeric E2 core-GFP protein (E2 core, 412-645 a.a., of hepatitis C virus fused with superfolder GFP) (from UniProt P27958 412-645) (domain or fragment)”, the percentage of aggregates (DLS, after 30 min) was 33%.
